The record followed here is patent US20250027068.

This data set concerns the target pooled human IgG (human IgG1,2,3 and 4).

B1: PRT-675 (protein)
chain: MQITSVWTKGVTPPTMDDFTINGEDVFHAPYVANQGWYDITKTFNGKDDLLCGAATAGNMLHWWFDQNKEQIERYLKKHPEKQKIIFNNQEMFDLKEAINTKDSQTDSKLFNYFRDKAFPNLSARQLGVMPDHVLDMFINGYYLNLTKTQSTDVNRPEDTKDLRGGIFDHVFTRGDQSKLLTARHDLKNKTLKEISDLIKQELTEGKALGLSHTYANVRISHVINLWGADFDAEGNLEAIYVTDSDSNASIGMKKYYVGVNSAGKVAISAKKIEGDNIGAQVLGLYTLSTGKDIWQKLSLEHHHHHH
For B1, the Enzyme activity endpoint: Fab′2 is 448 ng/µL, the Enzyme activity endpoint: Fc was 400 ng/µL, the Enzyme activity endpoint: IgG turned out to be 229 ng/µL and the Enzyme activity endpoint: scIgG turned out to be 456 ng/µL.

B2: PRT-683 (protein)
chain: MQITSVWTKGVTPLTPEQFRYNNEDVIHAPYLAHQGWYDITKAFNGKDNLLCGAATAGNMLHWWFDQNKEEIEAYLKKHPEKQKIIFNNQELFDLRKAINTKDSQTNSQLFNYFRDKAFPNLSARQLGVMPDLVLDMFINGYYLNVFKTQSTDVNRPYQDKDKRGGIFDHVFTRGDQTTLLTARHDLKNKTLNDISQIIKQELQEGKALALSHTYANVSISHVINLWGADFNAEGNLEAIYVTDSDANASIGMKKYFVGKNAHGHVAISAKKIEGENIGAQVLGLFTLSSGKEIWQKLSLEHHHHHH
Consider B2, for which the Enzyme activity endpoint: Fab′2 worked out at 1100 ng/µL, the Enzyme activity endpoint: Fc is 570 ng/µL, the Enzyme activity endpoint: IgG came to 0 ng/µL and the Enzyme activity endpoint: scIgG was found to be 0 ng/µL.

B3: PRT-617 (protein)
chain: MQITSVWTKGVTPLTPEQFRYNNEDVIHAPYLPHQGWYDITKAFDGGDNLLCGAATAGNMLHWWFDQNKTEIEAYLSKYPEKQKIIFNNQELFDLRAAINSKDSQTNSQLFNYFRDKAFPNLSARQLGVMPDLVLDMFINGYYLNVFKTQSTDVNRPYQDPDKRGGIFDDVFKEGDQTTLLTARHDLKNGGLNDISTIIKQELQSGRALALSHTYANVSISHVINLWGADFNAEGNLEAIYVTDSDANQSIGMKKYKVGINAHGHVAISAKKIEGENIGAQVLGLFTLSSGKEIWQKLSLEHHHHHH
Protein B3 displayed an Enzyme activity endpoint: Fab′2 of 630 ng/µL, an Enzyme activity endpoint: Fc of 34 ng/µL, an Enzyme activity endpoint: IgG of 798 ng/µL and an Enzyme activity endpoint: scIgG of 25 ng/µL.

B4: PRT-689 (protein)
chain: MQITSVWTKGVTPLTMDQFTNNNEDVIHAPYKPGQGWYDITKTFDGKDNLLCGAATAGNMLHWWFDQNKEEIENYLKKHPEKQKIIFNNQKLFDLRKAINTKDSQTNSALFNYFRDKAFPNLSARQLGVMPDLVLDMFINGYYLNVFKTQSTDVNREYQTKDKRGGIFDDVFGRGDQTTLLTARHDLKNGGLNDISQIIKQELSSGKALALSHTYANVSISHVINLWGADFNEEGNLEAIYVTDSDANASIGMKKYYVGKNAHGKVAISAKKIEGENIGAQVLGLFTLSSGKEIWQKLSLEHHHHHH
Protein B4 had an Enzyme Activity Endpoint Assay (purified): Fab′2 of 335 ng/µL, an Enzyme Activity Endpoint Assay (purified): Fc of 248 ng/µL, an Enzyme Activity Endpoint Assay (purified): IgG of 376 ng/µL and an Enzyme Activity Endpoint Assay (purified): scIgG of 174 ng/µL.

B5: PRT-673 (protein)
chain: MQITSVWTKGVTPPTPEQFRYYNEDVLHAPYKPHQGWYDITKTFNGKDNLLCGAATAGNMLHWWFDQNKTQIEAYLKKYPEKQKIIFNNQKMFDLRKAINTKDSQTNSALFSYFKDKAFPNLSARQRGVMPDLVLDMFINGYYLNVGKTQSTDVNRPYQTRDKRGGIFDHVFGRGDQTKLLTARHDLKNKTLNEISQLIKQELSEGKALALSHTYANVSISHVINLWGADFNAEGNLEAIYVTDSDSDAKIGMKKYYVGKNASGKVAISAKKIEGENIGAQVLGLYTLSTGKDIWQKLSLEHHHHHH
In the case of B5, the Enzyme activity endpoint: Fab′2 came out at 34 ng/µL, the Enzyme activity endpoint: Fc stood at 252 ng/µL, the Enzyme activity endpoint: IgG was 601 ng/µL and the Enzyme activity endpoint: scIgG is 989 ng/µL.
